Reference: patent US20230212319A1, “NOVEL ANTIGEN BINDING DOMAINS AND SYNTHETIC ANTIGEN RECEPTORS INCORPORATING THE SAME” (University of Southern California, priority 2020, published 2023)

What was measured:
Type in all cases: cell-based
[1] = tested on: target antigen-expressing cell line; assay: Jurkat NFAT-GFP (JNG) assay: induction of NFAT promoter driven GFP expression; conditions: SAR-expressing JNG cells co-cultured with cell lines expressing their target antigen(s)
Protocol: Induction ofNFAT promoter driven GFP expression. […] Cellular supernatant is collected and assayed for the induction of cytokines (e.g., IL2).
Cellular supernatant is collected and assayed for the induction of cytokines (e.g., IL2).
JNG (Jurkat cells expressing EGFP under an NFAT promoter) were infected with lentiviral vectors encoding different single chain and multi-chain SARs by spinfection in the presence of 8 µg/ml of Polybrene® (Sigma, Catalog no. H9268). The Jurkat-NFAT-GFP cells are engineered in such a way that the IL-2 promoter, which carries NFAT binding sites, is cloned upstream of the GFP gene. These cells have been used to study signaling via TCR and CAR. The different SARs were stably expressed in Jurkat NFAT-GFP cells by lentiviral mediated gene transfer, followed by selection with puromycin or blasticidin. No drug selection was used in case the construct lacked an antibiotic resistance gene. The SAR-expressing Jurkat-NFAT-GFP cells were cocultured with the target cells at E:T ratio of approximately 1:2 for approximately 4 hours to 18 hours. When the interaction between SIRs and their target antigen results in activation of the NFAT pathway, GFP expression is induced. […] GFP expression was monitored by FACS analysis. The Jurkat-NFAT-GFP (parental) cells were used as control. The structure of different constructs can be determined based on their names. […] The sequence of the other constructs in the table can be similarly determined from their names and by referring to the different Tables of this disclosure that provide the names and SEQ ID NO of the different modules. Alternatively, the composition and modular architecture of the different SAR constructs can be determined from their sequences by bioinformatics tools, including using nucleic acid and amino acids homology searches. A SAR is considered positive in the assay in case the SAR expressing Jurkat-NFAT-GFP cells show greater % GFP positive cells when cultured with the target cell line as compared to parental Jurkat-NFAT-GFP cells. […] In general, the number +/-, +, 2+, 3+, 4+, 5+ refer to approximately 5%, 10%, 20%, 30%, 40% and 50% GFP positive cells. The % of GFP induction in the above assay is dependent not only the relative strength of the SAR but also, among other factors, on the relative level of expression of the SAR in the JNG cells and the relative level of expression of the target antigen in the target cell line. To control for the difference in gene transduction efficiency of the different SAR constructs, the experiment was conducted with JNG cells transduced with SAR constructs co-expressing a drug resistance gene (e.g., puromycin or PAC) followed by drug selection to generate a stable population of SAR-expressing cells. It is to be noted that the drug resistance gene (e.g., PAC) in the SAR constructs is optional and in vivo studies were conducted with SAR constructs lacking the PAC gene.

RAJI cells = assay: JNG assay, co-culture with RAJI cells; conditions: co-culture with RAJI cells
How it was run: (§1)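 Jurkat NFAT-GFP (JNG) cells stably transduced with SARs by lentivirus, with drug selection where the construct carried a resistance gene, then co-cultured with target cells at E:T ~1:2 for ~4–18 h. % GFP-positive cells measured by FACS against parental JNG; +/- to 5+ correspond to ~5–50% GFP-positive.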

RAJI-CD19-KO cells = assay: JNG assay, co-culture with RAJI-CD19-KO cells; conditions: co-culture with RAJI-CD19-KO cells
How it was run: as §1

Molecule	GFP induction / activity in JNG assay [1]	GFP induction / activity (RAJI cells)	GFP induction / activity (RAJI-CD19-KO cells)
CD8SP-BCMA-FHVH-93-G4S-CD19-MOR0028-scFv-hCD8TM-BBZ-T2A-PAC (protein) MALPVTALLLPLALLLHAARPACEVQLLESGGGLIQPGGSLRLSCAASGFTFSSHAMTWVRQAPGKGLEWVSAISGSGDYTHYADSVKGRFTISRDNSKNTVYLQMNSLRAEDSAVYYCAKDEDGGSLLGHRGQGTLVTVSSGTGGGGSGGGGSGGGGSEFINIYNAEPANPSEKNSPEFDIVMTQSPATLSLSPGERATLSCRSSKSLQNVNGNTYLYWFQQKPGQSPQLLIYRMSNLNSGVPDRFSGSGSGTEFTLTISSLEPEDFAVYYCMQHLEYPITFGAGTKLEIKGGGGSGGGGSGGGGSEVQLVESGGGLVKPGGSLKLSCAASGYTFTSYVMHWVRQAPGKGLEWIGYINPYNDGTKYNEKFQGRVTISSDKSISTAYMELSSLRSEDTAMYYCARGTYYYGTRVFDYWGQGTLVTVSSTRTTTPAPRPPTPAPTIASQPLSLRPEACRPAAGGAVHTRGLDFACDIYIWAPLAGTCGVLLLSLVITLYCKRGRKKLLYIFKQPFMRPVQTTQEEDGCSCRFPEEEEGGCELRVKFSRSADAPAYQQGQNQLYNELNLGRREEYDVLDKRRGRDPEMGGKPRRKNPQEGLYNELQKDKMAEAYSEIGMKGERRRGKGHDGLYQGLSTATKDTYDALHMQALPPRSSGSGEGRGSLLTCGDVEENPGPHMTEYKPTVRLATRDDVPRAVRTLAAAFADYPATRHTVDPDRHIERVTELQELFLTRVGLDIGKVWVADDGAAVAVWTTPESVEAGAVFAEIGPRMAELSGSRLAAQQQMEGLLAPHRPKEPAWFLATVGVSPDHQGKGLGSAVVLPGVEAAERAGVPAFLETSAPRNLPFYERLGFTVTADVEVPEGPRTWCMTRKPGA	effective GFP induction	effective GFP induction	effective GFP induction
SEQ ID NO: 22099: FHVH attached to TCRa-wt2-opt-6MD via IgCL linker and second FHVH attached to TCRb-wt2-opt-6MD via IgG1-CH1 linker (protein) MALPVTALLLPLALLLHAARPQVQLVESGGGLVQPGGSLRLSCAASGFTFTNHAMSWVRQAPGKGLELVSSISGNGRTTYYADSVKGRFTISRDISKNTLDLQMNSLRAEDTAVYYCAKDGGETLVDSRGQGTLVTVSSLEGQPKANPTVTLFPPSSEELQANKATLVCLISDFYPGAVTVAWKADGSPVKAGVETTKPSKQSNNKYAASSYLSLTPEQWKSHRSYSCQVTHEGSTVEKTVAPTECSGRADCGFTSESYQQGVLSATILYEILLGKATLYAVLVSALVLMAMVKRKDSRGRAKRSGSGATNFSLLKQAGDVEENPGPTSMDWIWRILFLVGAATGAHSFEEVQLLESGGGLVQPGGSLRLSCAASGFTFSSYAMSWVRQAPGKGLEWVSSISGSGDYIYYADSVKGRFTISRDISKNTLYLQMNSLRAEDTAVYYCAKEGTGANSSLADYRGQGTLVTVSSTRASTKGPSVFPLAPSSKSTSGGTAALGCLVKDYFPEPVTVSWNSGALTSGVHTFPAVLQSSGLYSLSSVVTVPSSSLGTQTYICNVNHKPSNTKVDKRVEPKSCIPEDTFFPSPESSCDVKLVEKSFETDTNLNFQNLSVIGFRILLLKVAGFNLLMTLRLWSSRAKRSGSGVKQTLNFDLLKLAGDVESNPGPSRGHMTEYKPTVRLATRDDVPRAVRTLAAAFADYPATRHTVDPDRHIERVTELQELFLTRVGLDIGKVWVADDGAAVAVWTTPESVEAGAVFAEIGPRMAELSGSRLAAQQQMEGLLAPHRPKEPAWFLATVGVSPDHQGKGLGSAVVLPGVEAAERAGVPAFLETSAPRNLPFYERLGFTVTADVEVPEGPRTWCMTRKPGA	good activity		
